# According to the RNAGym collection of RNA variant scans (doi:10.1073/pnas.2313332121):
# B1: TPR t1 (parent)
# chain: GACCAAUCUGCCCUCAGAGCUCGAGAACAUCUUCGGAUGCAGAGGAGGCAGGCUUCGGUGGCGCGAUAGCGCCAACGUCCUCAACCUCCAAUGCAUCCCACCACAUGAUGAUGCCUGAAGAGCCUUGGUUUUUUG
# Variants of: B1
# Assay: polymerase ribozyme fitness, log enrichment relative to wild type (log ratio); higher = more active; in vitro selection for triplet polymerase activity
# How it was run: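 One round of in vitro selection, in triplicate, was applied to PCR-built, transcribed mutant libraries of each subunit of a heterodimeric triplet polymerase ribozyme. The steps were annealing with a biotinylated primer, partner subunit and triplets, incubation frozen at −7 °C, gel excision of extended constructs, streptavidin-bead capture and RT-PCR. Fitness is the logarithm, base 2, of genotype enrichment over wild-type enrichment from inverse-variance-weighted replicate averages of Illumina-sequenced inputs and outputs, keeping genotypes with ≥10 input reads and ≥1 read per output.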
row,Variant,polymerase ribozyme fitness (log ratio)
1,G44U A83C,-1.34
2,G45U A50U C53A C114U,-3.7
3,G35A U130G,-5.13
4,G42C U87A,-1.23
5,C62A C114U,-2.2
6,C80A U87G,-2.88
7,C80A A108G,-5.73
8,C13A A16U U116G,-1.13
9,U112C G120C,0.72
10,G110A C114G,-6.64
11,U7A G42A G60C,-2.37
12,G63C C76A A91C A100C C115G C123A,-4.91
13,C53U A121C,2.13
14,A27U C114U,-4.39
15,G47A G51A U130A,-4.79
16,C56U G120C G122U,1.43
17,C85U U87A C89U,-2.94
18,C15U C70U U81A G113A G117A,-4.22
19,C56A C64U G120C,-2.77
20,U32G G57A C123U,-7.55
21,U9C C86A C99A,-5.49

row,Variant,polymerase ribozyme fitness (log ratio)
1,G63U C115U,-3.37
2,G57A C89U U130C,-0.888
3,G60U U78C A90C G117U,-4.13
4,C15A C123A,-1.02
5,A43U A118U,-1.23
6,A46C G69C C85A,-3.49
7,G39U C70U,-2.34
8,C20A U106C,-2.55
9,G44A U54A C62A U106A,-3.38
10,G61A U81G U116G C124A,-2.39
11,G42U G63A C82U,-2.86
12,A66U A74G A118U,-0.793
13,U81G G113C,-4.85
14,G36A G60A C85U C124G,0.468
15,U9G G51A G60A C94A,-3.72
16,C104A U106A,-2.51
17,A18C G127C,-3.02
18,C8G C11U C40U G61C A90G C97U U129G,-3.08
19,G44U A90U,-2.78
20,G69A G122A,-2.53
21,G52A A111C,0.197

row,Variant,polymerase ribozyme fitness (log ratio)
1,C64U A118G,-1.18
2,C49G C73G,-1.7
3,A2U A100U U116C,-3.73
4,G17A C85U A91C A108G A111C C124U,-6.83
5,G61U C88A,-1.18
6,C79A C114A,-2.46
7,U32A G117A,-5.64
8,G69U G120A G128C,-1.25
9,U55C A83G C85U C124A,0.55
10,C72A A105U G122A,-2.49
11,U38G C53G G69U C98A,-6.04
12,G23A C72U C85U,-6.02
13,G60A G93A G120A,-0.129
14,C64A U87A G93A U112A,-5.11
15,G63A A68G,-3.95
16,A18C G113C,-3.55
17,U9G A26C,-4.47
18,A27U G48C C124G U126C G128A,-4.06
19,G47C C86A,-0.437
20,C15U A16C G93C C123U U126C,-2.73
21,C15A C98U G117A,-4.11

row,Variant,polymerase ribozyme fitness (log ratio)
1,C11A C73G,-1.79
2,G35U G120U,-5.06
3,G71C C123G,0.627
4,G51A G57C U112G,-1.7
5,C89A C124G,-0.00331
6,G35A G120A,-2.08
7,A41U C56G G71U C79U G117C,-6.29
8,C12U U21G U38A G61C A103U U112C C115A A118G G127U,-6.24
9,G69A C86U A111C,-3.32
10,G17C G69U,-2.68
11,G61U U131A,-0.736
12,C72A C114A,-1.85
13,G36U G61C,-2.58
14,C56G C89U,-0.286
15,G10U C11G C62G,-1.22
16,C49G C56G A91C,-2.49
17,C22A C64U C114G G135U,-5.66
18,C8G C114A G135U,-0.31
19,C8G G10A A18G G65C U116G G117A,-5.46
20,G51U C124G,-1.68
21,G61C G93C,-3.2
